Measured values reported in the supplement of paper PMC9112550, “Optimization of the antimicrobial peptide Bac7 by deep mutational scanning” (BMC Biology, 2022).

Test system: Escherichia coli TOP10
Test: shrunken log2 fold change of peptide-encoding DNA abundance (4.5 h post-induction vs induction); higher = less antimicrobial activity (less host growth inhibition)
Settings: time post-induction: 4.5 h; library: site-saturation at positions 5, 18, 19, 20
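Also: peptides expressed intracellularly from a pBAD plasmid library in pooled LB shake-flask culture, induced with 0.3% L-arabinose, DNA abundance read by NGS, three biological replicates, DESeq2 with apeglm shrinkage.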

Sequence: RRIRHRPPRLPRPRPRPQQYPRP
- shrunken log2 fold change: -0.706

Sequence: RRIRKRPPRLPRPRPRPSKEPRP
- shrunken log2 fold change: 0.0111

Sequence: RRIRMRPPRLPRPRPRPFDIPRP
- shrunken log2 fold change: -0.126

Sequence: RRIRMRPPRLPRPRPRPQSGPRP
- shrunken log2 fold change: -0.0103

Sequence: RRIRDRPPRLPRPRPRPTVMPRP
- shrunken log2 fold change: -0.221

Sequence: RRIRTRPPRLPRPRPRPPGVPRP
- shrunken log2 fold change: 0.182

Sequence: RRIRSRPPRLPRPRPRPARAPRP
- shrunken log2 fold change: 0.985

Sequence: RRIRHRPPRLPRPRPRPNMPPRP
- shrunken log2 fold change: 0.0144

Sequence: RRIRGRPPRLPRPRPRPHFAPRP
- shrunken log2 fold change: 0.628

Sequence: RRIRKRPPRLPRPRPRPTADPRP
- shrunken log2 fold change: 0.345

Sequence: RRIRVRPPRLPRPRPRPILDPRP
- shrunken log2 fold change: -0.224

Sequence: RRIRYRPPRLPRPRPRPGTTPRP
- shrunken log2 fold change: -0.0671

Sequence: RRIRERPPRLPRPRPRPPTRPRP
- shrunken log2 fold change: 0.254

Sequence: RRIRPRPPRLPRPRPRPTEYPRP
- shrunken log2 fold change: -0.264

Sequence: RRIRNRPPRLPRPRPRPVARPRP
- shrunken log2 fold change: 0.23

Sequence: RRIRERPPRLPRPRPRPCAPPRP
- shrunken log2 fold change: -0.215

Sequence: RRIRLRPPRLPRPRPRPFLQPRP
- shrunken log2 fold change: -0.102

Sequence: RRIRHRPPRLPRPRPRPYTNPRP
- shrunken log2 fold change: -0.461

Sequence: RRIRVRPPRLPRPRPRPYVLPRP
- shrunken log2 fold change: -1.12

Sequence: RRIRSRPPRLPRPRPRPYRAPRP
- shrunken log2 fold change: -0.019

Sequence: RRIRRRPPRLPRPRPRPQLNPRP
- shrunken log2 fold change: 0.159

Sequence: RRIRRRPPRLPRPRPRPATIPRP
- shrunken log2 fold change: -0.0623

Sequence: RRIRQRPPRLPRPRPRPSSTPRP
- shrunken log2 fold change: -0.215

Sequence: RRIRYRPPRLPRPRPRPHFKPRP
- shrunken log2 fold change: -0.346

Sequence: RRIRYRPPRLPRPRPRPHCFPRP
- shrunken log2 fold change: -0.165

Sequence: RRIRYRPPRLPRPRPRPPMAPRP
- shrunken log2 fold change: 0.298

Sequence: RRIRQRPPRLPRPRPRPLSMPRP
- shrunken log2 fold change: -0.262

Sequence: RRIRWRPPRLPRPRPRPPWEPRP
- shrunken log2 fold change: 0.541

Sequence: RRIRYRPPRLPRPRPRPYKDPRP
- shrunken log2 fold change: -0.748

Sequence: RRIRCRPPRLPRPRPRPFKRPRP
- shrunken log2 fold change: -0.219

Sequence: RRIRARPPRLPRPRPRPIHHPRP
- shrunken log2 fold change: -0.302

Sequence: RRIRARPPRLPRPRPRPPRLPRP
- shrunken log2 fold change: 0.829

Sequence: RRIRMRPPRLPRPRPRPSTSPRP
- shrunken log2 fold change: -0.0821

Sequence: RRIRIRPPRLPRPRPRPTNCPRP
- shrunken log2 fold change: -0.649

Sequence: RRIRCRPPRLPRPRPRPHCTPRP
- shrunken log2 fold change: -0.88

Sequence: RRIRARPPRLPRPRPRPDAIPRP
- shrunken log2 fold change: 1.03

Sequence: RRIRPRPPRLPRPRPRPWYVPRP
- shrunken log2 fold change: -0.369

Sequence: RRIRKRPPRLPRPRPRPRGMPRP
- shrunken log2 fold change: 0.357

Sequence: RRIRRRPPRLPRPRPRPSYDPRP
- shrunken log2 fold change: -0.434

Sequence: RRIRRRPPRLPRPRPRPLRWPRP
- shrunken log2 fold change: 0.732

Sequence: RRIRTRPPRLPRPRPRPAIWPRP
- shrunken log2 fold change: 0.238

Sequence: RRIRVRPPRLPRPRPRPWLKPRP
- shrunken log2 fold change: 0.151

Sequence: RRIRMRPPRLPRPRPRPIKFPRP
- shrunken log2 fold change: -0.5

Sequence: RRIRIRPPRLPRPRPRPQANPRP
- shrunken log2 fold change: 0.00435

Sequence: RRIRDRPPRLPRPRPRPCFIPRP
- shrunken log2 fold change: -0.13

Sequence: RRIRSRPPRLPRPRPRPRYWPRP
- shrunken log2 fold change: 0.0181

Sequence: RRIRIRPPRLPRPRPRPCGLPRP
- shrunken log2 fold change: -0.0428

Sequence: RRIRLRPPRLPRPRPRPMSVPRP
- shrunken log2 fold change: -0.18

Sequence: RRIRYRPPRLPRPRPRPDYQPRP
- shrunken log2 fold change: 0.0202

Sequence: RRIRGRPPRLPRPRPRPVPAPRP
- shrunken log2 fold change: 1

Sequence: RRIRCRPPRLPRPRPRPHGDPRP
- shrunken log2 fold change: -0.0473

Sequence: RRIRTRPPRLPRPRPRPETAPRP
- shrunken log2 fold change: 0.4

Sequence: RRIRQRPPRLPRPRPRPISRPRP
- shrunken log2 fold change: -0.0404

Sequence: RRIRGRPPRLPRPRPRPHTMPRP
- shrunken log2 fold change: -0.175

Sequence: RRIRRRPPRLPRPRPRPVWIPRP
- shrunken log2 fold change: 0.148

Sequence: RRIRGRPPRLPRPRPRPAIMPRP
- shrunken log2 fold change: 1

Sequence: RRIRFRPPRLPRPRPRPIVTPRP
- shrunken log2 fold change: -0.075

Sequence: RRIRGRPPRLPRPRPRPLGYPRP
- shrunken log2 fold change: 0.885

Sequence: RRIRMRPPRLPRPRPRPSCAPRP
- shrunken log2 fold change: 0.563

Sequence: RRIRERPPRLPRPRPRPASNPRP
- shrunken log2 fold change: -0.257

Sequence: RRIRERPPRLPRPRPRPRVSPRP
- shrunken log2 fold change: 0.0184

Sequence: RRIRMRPPRLPRPRPRPLYSPRP
- shrunken log2 fold change: -1.32

Sequence: RRIRMRPPRLPRPRPRPCQGPRP
- shrunken log2 fold change: -0.168

Sequence: RRIRGRPPRLPRPRPRPCFDPRP
- shrunken log2 fold change: 0.299

Sequence: RRIRKRPPRLPRPRPRPDVQPRP
- shrunken log2 fold change: -0.00299

Sequence: RRIRVRPPRLPRPRPRPNIPPRP
- shrunken log2 fold change: -0.463

Sequence: RRIRGRPPRLPRPRPRPHLIPRP
- shrunken log2 fold change: 0.205

Sequence: RRIRSRPPRLPRPRPRPKSNPRP
- shrunken log2 fold change: -0.347

Sequence: RRIRFRPPRLPRPRPRPPTMPRP
- shrunken log2 fold change: 0.166

Sequence: RRIRFRPPRLPRPRPRPILTPRP
- shrunken log2 fold change: -0.689

Sequence: RRIRTRPPRLPRPRPRPVSMPRP
- shrunken log2 fold change: -0.812

Sequence: RRIRQRPPRLPRPRPRPPTFPRP
- shrunken log2 fold change: 0.0128

Sequence: RRIRSRPPRLPRPRPRPPTVPRP
- shrunken log2 fold change: 0.153

Sequence: RRIRQRPPRLPRPRPRPNLWPRP
- shrunken log2 fold change: -0.0933

Sequence: RRIRFRPPRLPRPRPRPFNIPRP
- shrunken log2 fold change: -0.429

Sequence: RRIRMRPPRLPRPRPRPNMWPRP
- shrunken log2 fold change: 0.0353

Sequence: RRIRMRPPRLPRPRPRPREYPRP
- shrunken log2 fold change: 0.314

Sequence: RRIRMRPPRLPRPRPRPWMLPRP
- shrunken log2 fold change: 0.367

Sequence: RRIRPRPPRLPRPRPRPSCIPRP
- shrunken log2 fold change: -0.749

Sequence: RRIRRRPPRLPRPRPRPFSNPRP
- shrunken log2 fold change: -0.0243

Sequence: RRIRQRPPRLPRPRPRPDDPPRP
- shrunken log2 fold change: -0.0062

Sequence: RRIRWRPPRLPRPRPRPRMLPRP
- shrunken log2 fold change: 0.281

Sequence: RRIRNRPPRLPRPRPRPGRCPRP
- shrunken log2 fold change: 0.143

Sequence: RRIRKRPPRLPRPRPRPKICPRP
- shrunken log2 fold change: 0.0599

Sequence: RRIRMRPPRLPRPRPRPQAPPRP
- shrunken log2 fold change: 0.718

Sequence: RRIRRRPPRLPRPRPRPHHTPRP
- shrunken log2 fold change: -0.408

Sequence: RRIRKRPPRLPRPRPRPATHPRP
- shrunken log2 fold change: 0.426

Sequence: RRIRGRPPRLPRPRPRPARYPRP
- shrunken log2 fold change: 0.339

Sequence: RRIRNRPPRLPRPRPRPTYCPRP
- shrunken log2 fold change: -0.276

Sequence: RRIRARPPRLPRPRPRPVENPRP
- shrunken log2 fold change: 0.25

Sequence: RRIRNRPPRLPRPRPRPAAEPRP
- shrunken log2 fold change: 0.232

Sequence: RRIRYRPPRLPRPRPRPPWRPRP
- shrunken log2 fold change: 0.331

Sequence: RRIRARPPRLPRPRPRPKTVPRP
- shrunken log2 fold change: 0.141

Sequence: RRIRFRPPRLPRPRPRPPTIPRP
- shrunken log2 fold change: -0.105

Sequence: RRIRVRPPRLPRPRPRPDNNPRP
- shrunken log2 fold change: -0.796

Sequence: RRIRHRPPRLPRPRPRPAEGPRP
- shrunken log2 fold change: -0.00235

Sequence: RRIRNRPPRLPRPRPRPNAWPRP
- shrunken log2 fold change: 0.000665

Sequence: RRIRTRPPRLPRPRPRPNVQPRP
- shrunken log2 fold change: -0.429

Sequence: RRIRYRPPRLPRPRPRPGYAPRP
- shrunken log2 fold change: -0.456

Sequence: RRIRLRPPRLPRPRPRPDAMPRP
- shrunken log2 fold change: 0.224

Sequence: RRIRHRPPRLPRPRPRPKNRPRP
- shrunken log2 fold change: -0.227

Sequence: RRIRIRPPRLPRPRPRPFMIPRP
- shrunken log2 fold change: -0.73

Sequence: RRIRDRPPRLPRPRPRPDKPPRP
- shrunken log2 fold change: 0.00451

Sequence: RRIRRRPPRLPRPRPRPGGFPRP
- shrunken log2 fold change: 0.36

Sequence: RRIRLRPPRLPRPRPRPDQQPRP
- shrunken log2 fold change: -0.174

Sequence: RRIRERPPRLPRPRPRPTGRPRP
- shrunken log2 fold change: -0.146

Sequence: RRIRVRPPRLPRPRPRPAVHPRP
- shrunken log2 fold change: -0.021

Sequence: RRIRARPPRLPRPRPRPSRQPRP
- shrunken log2 fold change: 0.373

Sequence: RRIRERPPRLPRPRPRPCLRPRP
- shrunken log2 fold change: 0.0836

Sequence: RRIRYRPPRLPRPRPRPEVFPRP
- shrunken log2 fold change: -0.0536

Sequence: RRIRCRPPRLPRPRPRPLCQPRP
- shrunken log2 fold change: -0.949

Sequence: RRIRQRPPRLPRPRPRPLQDPRP
- shrunken log2 fold change: -0.0148

Sequence: RRIRHRPPRLPRPRPRPDKYPRP
- shrunken log2 fold change: -0.146

Sequence: RRIRNRPPRLPRPRPRPHLHPRP
- shrunken log2 fold change: -0.121

Sequence: RRIRKRPPRLPRPRPRPKASPRP
- shrunken log2 fold change: 0.0517

Sequence: RRIRHRPPRLPRPRPRPNFEPRP
- shrunken log2 fold change: 0.00825

Sequence: RRIRTRPPRLPRPRPRPMFDPRP
- shrunken log2 fold change: -0.0585

Sequence: RRIRMRPPRLPRPRPRPMGNPRP
- shrunken log2 fold change: 0.451

Sequence: RRIRFRPPRLPRPRPRPSKEPRP
- shrunken log2 fold change: 1.3

Sequence: RRIRQRPPRLPRPRPRPARYPRP
- shrunken log2 fold change: 0.0932

Sequence: RRIRFRPPRLPRPRPRPMVKPRP
- shrunken log2 fold change: -0.219

Sequence: RRIRPRPPRLPRPRPRPTIIPRP
- shrunken log2 fold change: -0.65

Sequence: RRIRNRPPRLPRPRPRPRYMPRP
- shrunken log2 fold change: -1.3

Sequence: RRIRRRPPRLPRPRPRPTYAPRP
- shrunken log2 fold change: 0.218

Sequence: RRIRDRPPRLPRPRPRPQSVPRP
- shrunken log2 fold change: -0.0496
